Where two headings read alike, the source gives them in different places.
T1: 4H570-AA
T1 chain: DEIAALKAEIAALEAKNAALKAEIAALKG

T2: 4H629-AA
T2 chain: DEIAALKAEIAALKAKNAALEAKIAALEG

T3: 4H710-AA
T3 chain: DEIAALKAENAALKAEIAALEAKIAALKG

T4: 4H745-AA
T4 chain: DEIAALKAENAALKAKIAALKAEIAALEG

T5: 4H797-AA
T5 chain: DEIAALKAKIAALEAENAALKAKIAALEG

T6: 4H850-AA
T6 chain: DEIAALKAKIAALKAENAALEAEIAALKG

T7: 4H891-AA
T7 chain: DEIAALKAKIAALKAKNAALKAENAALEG

T8: 4H909-AA
T8 chain: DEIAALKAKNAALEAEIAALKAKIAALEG

T9: 4H930-AA
T9 chain: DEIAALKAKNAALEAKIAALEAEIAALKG

T10: 4H94-AA
T10 chain: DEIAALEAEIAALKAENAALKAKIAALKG

T11: 4H993-AA
T11 chain: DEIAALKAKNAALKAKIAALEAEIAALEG

T12: 4H906-AA
T12 chain: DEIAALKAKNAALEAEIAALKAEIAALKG

T13: 4H63-AA
T13 chain: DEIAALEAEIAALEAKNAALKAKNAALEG

T14: 4H536-AA
T14 chain: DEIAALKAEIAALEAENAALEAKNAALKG

T15: 4H780-AA
T15 chain: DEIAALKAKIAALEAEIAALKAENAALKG

T16: 4H794-AA
T16 chain: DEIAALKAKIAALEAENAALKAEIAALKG

T17: 4H881-AA
T17 chain: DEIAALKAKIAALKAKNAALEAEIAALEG

T18: 4H485-AA
T18 chain: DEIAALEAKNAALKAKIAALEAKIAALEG

T19: 4H429-AA
T19 chain: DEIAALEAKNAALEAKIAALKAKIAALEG

T20: 4H454-AA
T20 chain: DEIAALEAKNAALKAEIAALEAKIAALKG

T21: 4H48-AA
T21 chain: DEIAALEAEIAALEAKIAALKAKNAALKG

T22: 4H566-AA
T22 chain: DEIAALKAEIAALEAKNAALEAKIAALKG

T23: 4H605-AA
T23 chain: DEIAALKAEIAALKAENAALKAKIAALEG

T24: 4H678-AA
T24 chain: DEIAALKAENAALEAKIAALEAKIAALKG

T25: 4H717-AA
T25 chain: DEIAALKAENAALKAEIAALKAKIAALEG

T26: 4H971-AA
T26 chain: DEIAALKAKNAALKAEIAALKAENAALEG


Experiments:
Test in all cases: two-hybrid library CCmax;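 also: natural log of median RNA to DNA barcode read ratio; higher means stronger binding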
4H570-AA = biological target: T1, 4H570-AA
4H629-AA = biological target: T2, 4H629-AA
4H710-AA = biological target: T3, 4H710-AA
4H745-AA = biological target: T4, 4H745-AA
4H797-AA = biological target: T5, 4H797-AA; conditions: mean of both orientations
4H850-AA = biological target: T6, 4H850-AA; conditions: mean of both orientations
4H891-AA = biological target: T7, 4H891-AA
4H909-AA = biological target: T8, 4H909-AA; conditions: mean of both orientations
4H930-AA = biological target: T9, 4H930-AA; conditions: mean of both orientations
4H94-AA = biological target: T10, 4H94-AA; conditions: mean of both orientations
4H993-AA = biological target: T11, 4H993-AA
4H906-AA = biological target: T12, 4H906-AA
4H63-AA = biological target: T13, 4H63-AA
4H536-AA = biological target: T14, 4H536-AA
4H780-AA = biological target: T15, 4H780-AA
4H794-AA = biological target: T16, 4H794-AA; conditions: mean of both orientations
4H881-AA = biological target: T17, 4H881-AA; conditions: mean of both orientations
4H485-AA = biological target: T18, 4H485-AA
4H429-AA = biological target: T19, 4H429-AA
4H454-AA = biological target: T20, 4H454-AA; conditions: mean of both orientations
4H48-AA = biological target: T21, 4H48-AA; conditions: mean of both orientations
4H566-AA = biological target: T22, 4H566-AA; conditions: mean of both orientations
4H605-AA = biological target: T23, 4H605-AA
4H678-AA = biological target: T24, 4H678-AA; conditions: mean of both orientations
4H717-AA = biological target: T25, 4H717-AA; conditions: mean of both orientations
4H971-AA = biological target: T26, 4H971-AA

interaction score (4H710-AA; mean of both orientations)	interaction score (4H745-AA; mean of both orientations)	interaction score (4H797-AA)	interaction score (4H850-AA)	interaction score (4H891-AA; mean of both orientations)	interaction score (4H909-AA)	interaction score (4H930-AA)	interaction score (4H94-AA)	Binder	further results
-1.47	-1.48	0.178	1.66	-0.736	-1.22	-1.1	1.71	DEIAALKAEIAALEAKNAALKAEIAALKG [4H570-AA]	interaction score (4H570-AA): 1.51; interaction score (4H629-AA; mean of both orientations): -0.598
–	–	–	–	–	–	–	–	DEIAALKAKNAALKAKIAALEAEIAALEG [4H993-AA]	interaction score (4H993-AA): 1.19
–	1.86	-1.31	-1.15	-1.65	-0.464	-0.472	-0.285	DEIAALKAENAALKAEIAALEAKIAALKG [4H710-AA]	interaction score (4H710-AA): 0.809
–	–	–	–	–	–	–	–	DEIAALKAKNAALEAEIAALKAEIAALKG [4H906-AA]	interaction score (4H906-AA): 1.74; interaction score (4H993-AA; mean of both orientations): -0.00106
–	–	–	–	–	–	–	–	DEIAALEAEIAALEAKNAALKAKNAALEG [4H63-AA]	interaction score (4H63-AA): -1.93
–	–	-1.44	-0.847	-1.51	-0.361	-0.807	-1.46	DEIAALKAENAALKAKIAALKAEIAALEG [4H745-AA]	–
-1.44	-1.07	-0.504	1.35	1.78	-1.61	-1.56	-0.957	DEIAALKAEIAALEAENAALEAKNAALKG [4H536-AA]	interaction score (4H536-AA): 0.339; interaction score (4H570-AA; mean of both orientations): 1.1; interaction score (4H629-AA; mean of both orientations): 0.302
–	–	–	–	–	-1.73	-1.86	-0.169	DEIAALKAKIAALKAKNAALKAENAALEG [4H891-AA]	interaction score (4H891-AA): -1.96
–	–	–	–	–	–	–	–	DEIAALKAKIAALEAEIAALKAENAALKG [4H780-AA]	interaction score (4H780-AA): 1.68; interaction score (4H794-AA): -1.57; interaction score (4H881-AA): -1.27; interaction score (4H906-AA; mean of both orientations): -1.19; interaction score (4H993-AA; mean of both orientations): -1.51
1.71	–	-0.968	1.97	-2.05	-0.153	-0.103	-1.46	DEIAALEAKNAALKAKIAALEAKIAALEG [4H485-AA]	interaction score (4H485-AA): 1.06; interaction score (4H536-AA; mean of both orientations): -1.29; interaction score (4H570-AA; mean of both orientations): -1.69; interaction score (4H629-AA; mean of both orientations): -1.15; interaction score (4H745-AA): 1.2
–	–	–	–	–	–	–	–	DEIAALEAKNAALEAKIAALKAKIAALEG [4H429-AA]	interaction score (4H429-AA): 0.468; interaction score (4H454-AA): 1.83; interaction score (4H48-AA): -0.728; interaction score (4H566-AA): 0.0626; interaction score (4H605-AA): -1.54; interaction score (4H678-AA): 1.26; interaction score (4H717-AA): -0.775; interaction score (4H780-AA; mean of both orientations): -1.7; interaction score (4H794-AA): -0.809; interaction score (4H881-AA): -0.143; interaction score (4H906-AA; mean of both orientations): -0.239; interaction score (4H993-AA): 1.92
–	–	–	–	–	–	–	–	DEIAALKAKNAALKAEIAALKAENAALEG [4H971-AA]	interaction score (4H971-AA): -0.816
-0.399	-1.44	-1.05	-0.0456	-1.48	-1.56	-1.41	-0.298	DEIAALKAEIAALKAKNAALEAKIAALEG [4H629-AA]	interaction score (4H629-AA): 1.86
